Test system: EIAV Rev (ERev), MBP-ERev fusion (Equine infectious anemia virus (EIAV))
Assay: filter binding
Conditions: Footprinting: 10 mM HEPES-KOH pH 7.5, 100 mM KCl, 1 mM MgCl2, 0.5 mM EDTA, complex formed 20 min on ice, probed 10 min at room temperature

Question: Which Kd does the source give for “ERRE_RBR12 (ERRE, EIAV RRE-1, contains RBR-1 and RBR-2)” here?
Answer: Its Kd is 19 nM.
